Test: label from the status in PepcDB records

Sequence | protein production
MSLKVVSVDTLCCDAGWRNYHFVKLTTDEGIVGWSEFDEGFGSPGVTAVIEQLGKRLVGASVMEHERFFAEAYCLTRPATGGVVSEGIGAIENALLDAKAKTLNVPCYELLGGKLRDRVPVYWSHCPTWRINHPKFFGPPVTDLDGVKRTAEEARERQFRAIKTNIFIHDDGPLHAWRPGFAVPFQPALNVDRKVLRNLRAHLEALRDGAGPDVEILLDLNFNAKPEGYLKILRELADFDLFWVEIDSYSPQGLAYVRNHSPHPISSCETLFGIREFKPFFDANAVDVAIVDTIWNGVWQSMKIAAFADAHDINVAPHNFYGHLCTMINANFAAAVPNLRIMETDIDRLAWEDELFTHAPEYQNGELIIPDRPGWGTDPVEEAILAHPPKVMGGLLQYKRSEGHHHHHH | not failed
MSLLEQLDKNIAASGGLIVSCQPVPGSPLDKPEIVAAMALAAEQAGAVAVRIEGIDNLRMTRSLVSVPIIGIIKRDLDESPVRITPFLDDVDALAQAGAAIIAVDGTARQRPVAVEALLARIHHHHLLAMADCSSVDDGLACQRLGADIIGTTMSGYTTPDTPEEPDLPLVKALHDAGCRVIAEGRYNSPALAAEAIRYGAWAVTVGSAITRLEHICGWYNDALKKAAS | not failed
MSLLTEVETYVLSIIPSGPLKAEIAQKLEDVFAGKNTDLEALMEWLKTRPILSPLTKGILGFVFTLTVPSERGLQRRRFVQNALNGNGDPNNMDRAVKLYKKLKREITFHGAKEVALSYSTGALASCMGLIYNRMGTVTTEVAFGLVCATCEQIADSQHRSHRQMATITNPLIRHENRMVLASTTAKAMEQMAGSSEQAAEAMEVANQARQMVQAMRTIGTHPNSSAGLRDNLLENLQAYQKRMGVQMQRFK | not failed
MSLMLSHNPIVEPFALAHATIVTGDKAGTILRNMTIVVGADGRIEQVAPSIETSIPAEYHYLDGTGKIVMPGLINAHTHLFSQGKPLNPKLATPKGQRMVATFAHSPLGKPYMAATVKHNATTLLESGVTTIRTLGDVGYEVVTLRDQIDAGQILGPRILASGPLMAIPEGHGAPLIALTSGTPEEARTAVAQNLKAGVNAIKIAATGGVTDAQEIGEAGSPQMSVEQMRAICDEAHQYGVIVGAHAQSPEGVRRSLLAGVDTIEHGSVLDDELIGMFRHNPNALRGYSALIPTLSAGLPLTLLGQDVTGITDIQLENSKNVVGGMVSGARQAHEAGLMIGVGTDTGMTFVPQYATWRELELLVAYAGFSPAEALHAATAVNASILGVDAETGSLEVGKSADLLVLNANPLDDLRALEHPALVIAAGHPVWRPGPKRFADIDALLDEAYAEGHHHHHH | not failed
MSLNGSRRIPQPIRWAMVGGGSQSQIGYIHRCAALRDNTFVLVAGAFDIDPIRGSAFGEQLGVDSERCYADYLSMFEQEARRADGIQAVSIATPNGTHYSITKAALEAGLHVVCEKPLCFTVEQAENLRELSHKHNRIVGVTYGYAGHQLIEQAREMIAAGELGDVRMVHMQFAHGFHSAPVEAQSQATQWRVDPRQAGPSYVLGDVGTHPLYLSEVMLPDLKIKRLMCSRQSFVASRAPLEDNAYTLMEYEGGAMGMVWSSAVNAGSMHGQKIRVIGSRASLEWWDERPNQLSFEVQGQPAQILERGMGYLHPNALIDDRIGGGHPEGLFEAWANLYYRFALAMDATDRSDTQALSAVRYPGIDAGVEGVRWVERCVLSADNDSIWVAYEGHHHHHH | not failed
MSLNYKNYTVMLVDDEQPILNSLKRLIKRLGCNIITFTSPLDALEALKGTSVQLVISDMRMPEMGGEVFLEQVAKSYPDIERVVISGYADAQATIDAVNRGKISRFLLKPWEDEDVFKVVEKGLQLAFLREENLRLQEETEAKNKQEGHHHHHH | not failed
MSLPANQIKEPGKQFQPAKSLKEPSQESLPGNLLKEPSQESRILCPDPDIVVELNVGGQFYTTTMGTLMKHPGSKFSEILSRSAKHYKDAQGRFFIDRPGTYFGPLLDYLRTGQVPTEYIPEVYQEAKFYQIHPLVKLLEDKPQIFGEQVARMQFLMGVPNYRENLEVLLHLARAEAVAMRSSKVVVCVVRTEEDDAKCTEPLHILEAKKTPVVKFGPWKAGPVTEDFVYCLEKDIRAKGYTVASQRYHLSRDPYTCFWILVFTWW | failed
MSLPRTLAFVSTLLLAAFCALPAQADSFIMRLLNKPVPGGVAVVDLGEEGPPPRAFYQGKPVLVVREEGRRWIAVVGIPLSTKPGPQKLEVRAATGNHEERFSVGSKHYREQRITLKNKRQVNPLPEDLKRIERELAEQTAAYRRFSPGLPSNLMLDKPVDGPLSSPFGLRRFFNGEERNPHSGLDFAVPAGTPIKAPAAGKVILIGDYFFNGKTVFVDHGQGFISMFCHLSKIDVKLGQQVPRGGVLGKVGATGRATGPHMHWNVSLNDARVDPAIFIGAFQPEGHHHHHH | not failed
MSLPSSRTRGRPARLDRARTVQTALDLLNESGLDTLTMRRLAQAMDVQAGALYRYFAAKQDLLTAMAEHMVDGVADAAGATGDGDWSERTARLARALRAALLAHRDGARVFAGTHATGPNTLRFADGLVGVLREAGFGDGDAARALYSVANFTVGHTLEEQAALTPGGGGPLDEATLREAVAAGTYPHLAATLPVLTSTDFTAHFEFGLRLLLDGLRAVRQ | not failed
MSLQESSLVLSNGLGFVDTPYKAGTLEVDDTEDLIINCDEVDCTTFVEYALAMALCPQQGDEMQEGDFARNLQRIRYRDGKIDGYTSRLHYISDWINNAVRQGLLEDVTAAYSPFKQKLSLSYMSTHPELYKSLKNSPENVAQMAKYEKALSGKEVHYLPKDKLEPDGLPWIKNGDIIALTTNTPGLDVSHMGIAIYIKGQLHLLHASSKEGKVVVGKTALSQMLKDRKSLTGIRVLRMKKEGHHHHHH | not failed
MSLQWECWPSLPCWRCFAASGRITLSIKRFTQNSRRHDMKITKINAIPLSYRLPEGKTVTMGVGSTIKRDAIIIRVETSEGITGYGEAHPGRSPGAITSLIHNTIAPMLIGMKATDCVGAWQRVHRMQLSSHGLGAGAALAISGIDMALWDIRGKAANMPLYELLGGSKRRIPAYAGGIALGYQPKESLAEEAQEYIARGYKALKLRIGDAARVDIERVRHVRKVLGDEVDILTDANTAYTMADARRVLPVLAEIQAGWLEEPFACNDFASYREVAKITPLVPIAAGENHYTRFEFGQMLDAGAVQVWQPDLSKCGGITEGIRIAAMASAYRIPINAHSSATGLNHAATIHFLAATENAGYFEACVSKFNPFRDMFGTSFEIGADGCVEPPDAPGLGIEVDESIFEKYPAVDGPGYVVKFEGHHHHHH | not failed
MSLRDFGLLVLICLIWAGSNIISKLVVAHWGVPPLYYAAVRFALVAALTLPWLLPAPRPTWRMVLVGLLMGGGNFALLFMGFQTASPSAASVVIQVGVPFTTLLSVLILGEKIRWRRGLGIALTLLGAVVVMWSPKGIELSAGLWLIVAAAFTGSLGAVMMKQIEGVKPLQFQAWVGFSSVWPLAAMSAFMEPGQVAAGFAAGWPFVAAVVFSAVVVSILAHTAYYGLIQRYEANLIAPLTLMTPLFTIGMGVVVTNDHFDLRMGIGAALALLGVLIIALRRNQVMPLLTSLRSRLQ | failed
MSLRDTQTQLRNEMIYSVFVRNYSEAGNFAGVTADLQRIKDLGTDILWLLPINPIGEVNRKGTLGSPYAIKDYRGINPEYGTLADFKALTDRAHELGMKVMLDIVYNHTSPDSVLATEHPEWFYHDADGQLTNKVGDWSDVKDLDYGHHELWQYQIDTLLYWSQFVDGYRCDVAPLVPLDFWLEARKQVNAKYPETLWLAESAGSGFIEELRSQGYTGLSDSELYQAFDMTYDYDVFGDFKDYWQGRSTVERYVDLLQRQDATFPGNYVKMRFLENHDNARMMSLMHSKAEAVNNLTWIFMQRGIPLIYNGQEFLAEHQPSLFDRDTMVADRHGDVTPLIQKLVTIKQLPLLRAADYQLAVVEEGIVKITYRAAGEALTAWIPLKGQVTAVATKLAAGSYQNLLTDGPTEVVDGKLTVDGQPVLIKYVTNTAVTKVADQSNEGHHHHHH | not failed
MSLRHLYIEEGRTVCASATSRNRRPTSESPHSDDVVVVEGMLRGRPETRVHAMFDGFQGRHSAMWLAQNVMNYLNDLRDVNEEEITRQFERMDGDLRAANLPGGSSALIIFVRYEKKPTEARVVGRQIVPEGAKEFTSVAEALGGPLMPVVAMNFRRDPRAAKGIYTIHVASLGNSRCVLKSGRTAIHLSTPHTASSHKERHRVQAAGGVFTTVNGELLLGGVVPMTRAFGSFDFKKGGQGKLQQDLVSAVPDVTTFFAYPGDDIVAGTAGAFAHFRSHAAIAAAIALYPVSPETVLDAAKAMVVNAKRRKVTKNISTFVRHLPESRTRSQKMLEGTSGENGEEDFSIDRTNELTQALQAGFFSFLLYYEGHHHHHH | not failed
MSLRKEPYLLVFGASVVDVFGFSKASYRPYNSTPGHVKISFGGVCRNIAENMARVGVNTNFMSILGNDEHGKSIVEHSKKIGYHMDDSMVIEGGSTPTYLAILDENGEMVSAIADMKSIGAMNTDFIDSKREIFENAEYTVLDSDNPEIMEYLLKNFKDKTNFILDPVSAEKASWVKHLIKDFHTIKPNRHEAEILAGFPITDTDDLIKASNYFLGLGIKKVFISLDADGIFYNDGVSCGKIKATEVDVKNVTGAGDSFVAGLGYGYMNKMPIEDIVKFAMTMSNITISHEETIHPDMALDTVLAKLEKTTWEEEKYDLNEGHHHHHH | not failed
MSLRNPVLAGLSVEEIREAVSGEYLIEPREEKMVEQVVIGAMSPQSALRYLREARNAALVTGGDRSDLLLTALEMPNVRCLILTGNLEPVQLVLTKAEERGVPVILTGHDTLTAVSRLESVFGRTRIRGEPKVGIMRELFESEGHHHHHH | not failed
MSLRQVIPIPSPPAKYLLPEVTVLDYGKKCVVIDLDETLVHSSFKPISNADFIVPVEIDGTIHQVYVLKRPHVDEFLQRMGQLFECVLFTASLAKYADPVADLLDRWGVFRARLFRESCVFHRGNYVKDLSRLGRELSKVIIVDNSPASYIFHPENAVPVQSWFDDMTDTELLDLIPFFEGLSREDDEGHHHHHH | not failed
MSLSAPRITRVETAAIRAVGPSVLVRVWAGDEHGLGECYPSAPAAGIHHIVMNMEEQLLGEDPRDVERLYEKMRRWNIFTGGQAGAVITALSGIETALWDLAGKLQGVPVYRLLGGAFRRRVRLYADCNAGTVDAAAHHIEGGLFVEGSNEEYIAVAREAVERGFDAIKLDVDDITGPLHRDFWNGAISPREHEAMVARVAAVREAVGPEVEVAIDMHGRFDIPSSIRFARAMEPFGLLWLEEPTPPENLDALAEVRRSTSTPICAGENVYTRFDFRELFAKRAVDYVMPDVAKCGGLAEAKRIANLAELDYIPFAPHNVSSPVGTVAAAHVCAAVSNFAVLEWHAIDMPHWEDFVRYPGGPVIREGHIELTEEPGLGLELDEEAAFEHRHEKGGVPFFGRTEGHHHHHH | not failed
MSLSDESFEFDVSVIGLGAMGTIMAQVLLKQGKRVAIWNRSPGKAAALVAAGAHLCESVKAALSASPATIFVLLDNHATHEVLGMPGVARALAHRTIVDYTTNAQDEGLALQGLVNQAGGHYVKGMIVAYPRNVGHRESHSIHTGDREAFEQHRALLEGLAGHTVFLPWDEALAFATVLHAHAFAAMVTFFEAVGAGDRFGLPVSKTARLLLETSRFFVADALEEAVRRLETQDFKGDQARLDVHADAFAHIAQSLHAQGVWTPVFDAVCQVVQRAAAMGYGDQDIAATTKSFAREQEEGHHHHHH | not failed
MSLSDWHLAVKLADQPLAPKSILQLPETELGEYSLGGYSISFLKQLIAGKLQESVPDPELIDLIYCGRKLKDDQTLDFYGIQPGSTVHVLRKSW | not failed
MSLSEIKHWVFDMDGTLTIAVHDFAAIREALSIPAEDDILTHLAALPADESAAKHAWLLEHERDLAQGSRPAPGAVELVRELAGRGYRLGILTRNARELAHVTLEAIGLADCFAEADVLGRDEAPPKPHPGGLLKLAEAWDVSPSRMVMVGDYRFDLDCGRAAGTRTVLVNLPDNPWPELTDWHARDCAQLRDLLSAEGHHHHHH | not failed

Reference: a protein production outcome set (Wang et al. 2014)
